# Reference: patent publication US20200255478A1, “NOVEL COMPOUNDS ACTIVATING THE NRF2 PATHWAY” (Almirall, S.A., priority 2017, published 2020)
# Where “and” joins values, the source holds several entries; their conditions need not be identical. Equal entries are not always repeated. Positions of bridges follow the written chain, without caps; N, C: chain ends. Non-standard residues stand in square brackets, D forms with d. βAla = NCCC(=O)O
# B1: {[Stearyl-βAla-Leu-Gln-Cys(&1)-Asp-Pro-Glu-Thr-Gly-Glu-Cys(&2)-Leu-Pro-βAla-Arg-Lys-Lys-Arg-Arg-Gln- (peptide)
# peptide: Stearyl-[βAla]LQCDPETGECLP[βAla]RKKRRQRRR-NH2
# modifications: bridge 4-11; not fully specified (bridges); also: Cys4 and Cys11 cyclised, linker not given here
# Target: Keap1-Maltose Binding Protein (MBP tag), Q14145
# Experiment: TR-FRET competition vs ETGE-biotin; grade band per paragraph 615
# Sequence of Keap1-Maltose Binding Protein (MBP tag), Q14145 (Q14145 321-609 limits assumed): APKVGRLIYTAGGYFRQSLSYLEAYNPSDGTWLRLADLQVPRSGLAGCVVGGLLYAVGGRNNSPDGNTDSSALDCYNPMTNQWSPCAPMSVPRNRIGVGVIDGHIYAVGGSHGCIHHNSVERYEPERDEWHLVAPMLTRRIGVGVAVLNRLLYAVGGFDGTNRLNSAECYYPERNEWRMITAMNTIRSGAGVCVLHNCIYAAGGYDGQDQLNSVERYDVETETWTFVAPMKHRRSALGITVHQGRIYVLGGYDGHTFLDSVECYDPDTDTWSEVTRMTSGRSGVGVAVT
binder,measurement,value
B1,IC50,< 100 nM and > 1 nM
